Experimental data as given in patent publication US20250026838A1.

Tests used:
[1] = biological target: Human Galectin-3 (Gal3) protein (human) (UniProt P17931); assay: competition ELISA, hGal3 coated; competitor: biotinylated aggregated phospho-tau
[2] = biological target: Human Galectin-3 (Gal3) protein (human) (UniProt P17931); assay: competition ELISA, hGal3 coated; competitor: biotinylated aggregated alpha-synuclein

Sequence of Human Galectin-3 (Gal3) protein (human) (P17931 whole entry): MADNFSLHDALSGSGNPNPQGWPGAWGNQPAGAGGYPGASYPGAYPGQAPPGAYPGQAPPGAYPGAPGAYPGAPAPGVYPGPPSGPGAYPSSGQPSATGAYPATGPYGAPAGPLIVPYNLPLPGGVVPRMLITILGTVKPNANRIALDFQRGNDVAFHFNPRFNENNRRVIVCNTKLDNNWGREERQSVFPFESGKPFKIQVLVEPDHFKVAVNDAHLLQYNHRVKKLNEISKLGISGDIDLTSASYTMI

| Binder | blocking efficacy [1] [%] | blocking efficacy [2] [%] |
| --- | --- | --- |
| 2D10-VH0-VL0-hIgG4(S228P) (antibody, V domains shown) VH: QFQLQQSGPELVKPGASVKISCKASGYTFTDYYINWVKQRPGQGLEWIGWIYPGSNDTKYNEKFKGKATLTVDTSSSTAYMQLGSLTSEDSAVYFCANYFGCSGWFFDVWGTGTTVTVSS VL: DIVMTQAAFSNPVTLGTSASISCRSSKSLLHSDGITYLYWYLQRPGQSPQLLIYRMSNLASGVPDRFSGSGSGTDFTLRISRVEAEDVGVYYCAQMIEFPLTFGAGTILELKR | > 70 | > 70 |
| 846.1B2-hIgG4(S228P) (antibody, V domains shown) VH: QIQLVQSGPELKKPGETVKISCKASGYTFTNYGMNWVKQAPGKGLKWMGWINTYTGEPSYADDFKGRFAFSLETSASTAYLQINNLKNEDMATYFCARWGGYAGDYYAMDFWGQGTSVTVSS VL: NIWLTQSPSSLAVSAGEMVTMTCKSSQSVLYSSNQKNYLAWYQQKPGQSPKLLIYWASTRESGVPDRFTGSGSGTDFSLTISSVQAEDLAVYYCHQYLSSLTFGAGTKLELKR | > 70 | > 70 |
| 846.1H5-hIgG4(S228P) (antibody, V domains shown) VH: EVQLLESGGGLVKPGGSLKLSCAASGFTFSSYAMSWVRQTPEKRLEWVASISSGGDTYYPDSVKGRFTISRDNARNILYLQMSSLRSEDTAMYYCASYGNSLFDYWGQGTTLTVSS VL: DVVMTQTPLSLPVSLGDQASISCRSSQSLVHNSGNTYLHWYLQRPGQSPNLLIYKVSNRFSGVPDRFSGSGSGTDFTLKISRVAAEDLGVYFCSQSTHVPPTFGGGTKLEIKR | – | > 70 |
